According to a protein production outcome set (Wang et al. 2014):

Test: label from the status in PepcDB records

Sequence | protein production
MSVWLLQMKTNAIITDITKSIVKMDRILVYRHTNPDPDAIGAQFGLVALLKAAYPEKLVVAMAPVPGHLAWIDTTDEQLVTPQATDLVIAVDCANHERLAGELPTGAFVIKIDHHPNHDPYGQLNWVDETYSSCSEMIYELAQAGCFTVTAAVATKLYAGIIGDTVRFSTPETSTRTLKIASALAATDIDIATISHHEMDLTPALSKLYGYVLSEQTIEPSGLAHVVLPQRIFSDLSLEYGDEDALVPLPGNLTTVKVWLFFIETPQGQYRVHFRSKAINVNAVAKAFNGGGHPLASGAFVPDLATVGQVIEQMQAQVLAATAVDLEHHHHHH | failed
MSHRSPSVTPAVSVLIPAWNAVRHLPAALDGLLSQTFQDWEAVVVDDGSQDETPALLAAYAARDARIRPLHVEHGGIVHALNHGLLHVRGRHVARMDADDTCHPERLALQCHALDNAPHLGLVASRVTFGGDAAQCGGFVRYVDWTNSLLCHEDIALGRFRESPLVHPSVMFRRELIDRFGPYANGPFPEDYELWLRWLEAGVRMEKLPEHLLVWNDPPGRLTRTHDNYAEAGFVALRTRYLARWLCAHNPQHPDVWVIGAGKASRRRARPLCEHGIRIRAWVDIDPHKIGNIVEGLPVVGREAMPAPGQGFMLAFLAGHGAAEELELFLHGAGYLPGQDYLLASLEHHHHHH | not failed
MTTIALLGNPNVGKTTLFNALTGSNQHVGNWPGVTVDKKEGFFNSNKIVDLPGIYALDTFSNEEKVSKKFLESGDVDLILNIVDASNLDRNLYLTMQLKDFKKPIVLLLNMNDIAEKKGIKIDPKKLEKAFNLKVIPITASKKEGLDEVKEFLNKGNFEKYLDKNTYSFKDEAHTYKFIEDKLSDCFNRSGNSSTTLTDKLDKVFLNPWLAYPLFIALMYFVFQFTFSWVGQPISDALDGFLGDTFMPYLSDLLSGTAPWFQSLLVDGIVAGVGGIIVLLPIILALFLCIAILEDSGYMARVAFLMDKFMRKIGLSGKAFLPMITGFGCTVPAIMSARTLESEKDRKLTALLAPFMSCNARLPVYVIFAGLFFPDNASMVVASLYILGILVAFILGLVFKNTLFKKDEEPFIIELPEYKVPEVRSVLAQLWDKSKSFLKKAGTIIFAMSVVIWFLQSFNFTGMVEDITHSFLYNIGSFIAPIFAPLGFGDWQASVSLLTGLMAKETIISTMEVIYKGDLTHMLPQFFTALSSYSFMVFVLLYTPCISVVGVMKKEYGGKFTVLSVIFQFLVAWISAFIIYHIGLLIF | failed
MTKQIKVGVIGVGQMGQYHAEIYQKLPQVELVAICEFNDERRAEMAEKFQCKAYKDYHELLANTEIEAVIIVLPDNMHRDCVEEAVKHKKHILLEKPLAKELEDGKAMYELTKDYDKVFTVGFLLRFDPRFNMIKQRLDNGELGDIIHLYCRRNSPITGPKRYIGASDLSMHVMIHDIDYINWYMDSEPVKVIAKSRSVLLKEYGMNDVIYAIVTYENGAIACLEACWVLPENSPTIIDDKLELVGTKGVAYVDSCDHGVRFVSEKGVSYPDSRHWYYTNGEVSGDLAEEVMAFINNVANNTKSIITPKEAYDSLRVVDAIERSIAEGKEVSL | failed
MVRKALLFVIDVALTYFAGVVALFSRFGFDFQEMSRYDESVIVYTVISAVVYILNGNYSIVWEYANARDFLILIRGSVISYLSNLAFFYVYRGIVLPRSVGFAVFLGSMVLLVLSRITWQWMIVNGRGKVPGEKRILIIGAGDAGVSILEEFEKHPHLGKIVAFVDDSPRKIGRKVRGVPVFGPIEKTMEFVEKMNVDEIVIAIPSASRAEMERILKSIDLKKVRVKTLPSVRELIEGRVRISHLKEISIEDLLGREEVKVDFHEIGKFLKGKKILVTGAGGSIGSELCKQIARMNPAEIFLLGHGETSIYLINEFLTEHFPEVKKKRIIADVADRKIMEHWLTQLRPDVIFHVAAHKHVPLMEENPLEAFRVNVLGTMNLVELSERLGVKYFVFISTDKAVNPTSVMGLTKRIAELYILSREKNSTNFSIVRFGNVLGSRGSVVEKFRRQIEKGGPVTVTDPRMKRYFMSIPEAVSLILQSLLFSSGKDLFILDMGEQIPILKLAETMIMLSGYTPYQDIKIVFTGIRPGEKMYEELLYPYEVKELTPHSKIFRVKTSVLPGKESVEQAINRMKEAFENSDVKGLLTEMKKLVPEAQINVGSDN | failed
MSNAIEINELHWLLAVTQNIDVGIVVLDLNYRVTVWNTFMENRSGVVPYVAIDKTFFELFPEVNRQWLSKKIDNVVTLGTPAFTIWEQRPYLVRFKNYQPITGHEEFMYQNTTLFPLRSTTGAISHVCLVIYDVTDVAANRNQLQAANDKLQQLSGAEQK | not failed
FPPGTPLELGKEIAVYRIDGPVFFGAAERFATFLRDEPEVKYLILRLRFVPNMDTTGLVALEDIYHDLERHNCRLILTGLQPEVKQLLERTGLLKTIGLSNCFETTTDAICSISPQIQRCSQP | failed
